The text below walks through data of patent US8476051B2, “Thermostable alcohol dehydrogenase derived from Thermococcus guaymasensis” (priority 2008, dated 2013).

The target of data set [1] is T1, T. guaymasensis ADH (Thermococcus guaymasensis, UniProt F8S123). The data set can be described thus: Kinetic parameters, alcohol oxidation with NADP+. As to conditions: co-substrate NADP^+ (0.4 mM). The format is biochemical. How it is done:
(§1) The purified enzyme (0.25 μg) initiated the enzyme assay. […] The protein concentrations of all samples were determined using the Bradford method and bovine serum albumin served as the standard protein (Bradford 1976).
(§2) Apparent values of Km and Vmax were calculated using the curve fittings of SigmaPlot (Systat Software Inc., San Jose, Calif., USA).

Data set [2] has as its target T1, T. guaymasensis ADH. The experiment in a line: Kinetic parameters, ketone reduction with NADPH. It is filed as biochemical. The procedure: as §1, §2
Data set [3] is described as follows: ADH specific activity (spectrophotometric enzyme assay). The format is biochemical. As to conditions: 80° C.; for Specific activity: standard assay. How it is done: as §1
The reaction was initiated by adding enzymes.

How the values of data set [4] were obtained:
The effect of pH on the enzyme activities was determined over a range of 5.5-11.4. The buffers (100 mM) used were phosphate (pH 5.5-8.0), EPPS (8.0-9.0), glycylglycine (9.0-9.7), and CAPS (9.7-11.4). The effect of the temperature on the enzyme activity was examined at temperatures from 30 to 95° C. […] Residual activity was assayed at various time intervals under the standard assay conditions. Substrate specificity was determined using primary and secondary alcohols (50 mM), diols and polyols (50 mM), or aldehydes and ketones (6 mM) under standard assay conditions.
(§3) The effect of the temperature on the enzyme activity was examined at temperatures from 30 to 95° C. The activities were measured using standard assay conditions. Enzyme thermostability was evaluated by incubating the enzyme in sealed serum bottle at 80° C. and 95° C. respectively, and measuring the residual activities at different time intervals under the standard assay conditions.

Data set [5] can be described thus: Oxygen sensitivity (residual activity after exposure to air). It is filed as physicochemical. Particulars: for t1/2 upon exposure to the air: room temperature. The procedure:
The effect of oxygen on enzyme activity was investigated by exposing the enzyme samples in the air at room temperature and determining the residual activity after oxygen exposure. The exposure was performed in the presence or absence of DDT and SDT. The residual activities of each sample at different time intervals were tested parallelly under the standard assay conditions.

The nature of data set [6]: Optimum pH of enzyme activity. The format is biochemical. How it is done:
(§4) The effect of pH on the enzyme activities was determined over a range of 5.5-11.4. The buffers (100 mM) used were phosphate (pH 5.5-8.0), EPPS (8.0-9.0), glycylglycine (9.0-9.7), and CAPS (9.7-11.4). The effect of the temperature on the enzyme activity was examined at temperatures from 30 to 95° C. Enzyme thermostability was determined by incubating the enzyme in sealed serum bottles at 80° C. and 95° C., respectively. Residual activity was assayed at various time intervals under the standard assay conditions. Substrate specificity was determined using primary and secondary alcohols (50 mM), diols and polyols (50 mM), or aldehydes and ketones (6 mM) under standard assay conditions.
All the catalytic properties of native and recombinant TgADH were determined using the in vitro enzyme assay described above. The optimal pH of ethanol-dependent oxidation of native and recombinant TgADHs was determined by testing and comparing the enzyme activity at a series of pHs. Standard enzyme assay at 80° C. were applied using a set of 100 mM buffers: HEPES (pH 6.5, 7.0, 7.5 and 8.0), EPPS (pH 8.0, 8.5, 8.8, 9.0), glycine (pH 9.0, 9.5, 10.0) and CAPS (pH 10.0, 10.5, 11.0). The optimal pH of acetaldehyde-dependent reduction of native and recombinant TgADH was measured between pH 5.5 and 9.5 using the following buffers (100 mM): citrate (pH 5.5 and 6.0), PIPES (pH 6.0, 6.5 and 7.0), HEPES (pH 7.0, 7.5 and 8.0), EPPS (pH 8.0, 8.5, and 9.0), and glycine (pH 9.0 and 9.5).

The nature of data set [7]: Temperature dependence of enzyme activity. It is filed as biochemical. The procedure:
as §4, §3

For data set [8] the following is noted: cited from earlier work.
Data set [9] addresses T1, T. guaymasensis ADH. The data set can be described thus: Stereoselective conversion between acetoin and 2,3-butanediol (chiral GC). The format is biochemical. How it is done:
All the reactions were carried out at 30° C. for 24 hours unless specified. After that, the reaction mixture (1 ml) was extracted with 1 ml ethyl acetate or dichloride methane with shaking on a Gyrotory water bath shaker model G76 (New Brunswick Scientific Co., INC., NJ, USA) at 350 rpm for 30 min (room temperature). The stereoselectivity of the purified enzyme was determined using the Shimadzu GC-14A gas chromatography equipped with a CP-Chirasil-Dex CB column (0.25 mm ID×25 m length, Varian Inc., Palo Alto, Calif., USA). The following GC operating conditions included the FID detector (250° C.) at a sensitivity range of 10 and helium as the carrier gas at a linear velocity of 40 cm s^−1. […] The reaction mixture after extraction (0.5 μl) was directly applied onto the injector (200° C.) for each assay. The peak areas were quantitated using specific external standards.

On data set [10], the source says:
Enzymes resistant to solvent inactivation are of great interest from scientific and practical points of view.
The source holds these as a separate data set.

“And” between values parts separate entries of the source, which are not always exact repeats. Identical values can stand only once. Like-named read-outs stand apart in the source and are kept apart here.

`C[C@H](O)[C@H](C)O` [(2S,3S)-(+)-2,3-butanediol]: in data set [1], the “Apparent Vmax” value is given as 769 U mg^−1 and the kcat came out at 512 s⁻¹.
“nicotinamide adenine dinucleotide phosphate [NADPH]”: the “Apparent Km for NADPH, times lower than for NADP^+” value in [2] was determined as 40 times.

B1: recombinant TgADH: recombinant wild-type TgADH polypeptide (SEQ ID NO: 8) expressed in E. coli BL21-codon plus RIL with vector pET30a (protein)
chain: MHHHHHHSSGLVPRGSGMKETAAAKFERQHMDSPDLGTDDDDKAMADIGSEFMSKMRGFAMVDFGKAEWIEKERPKPGPYDAIVKPIAVAPCTSDIHTVFEAAFPREMCEFPRILGHEAVGEVVEVGSHVKDFKPGDRVVVPAITPDWRTLDVQRGYHQHSGGMLAGWKFSNPLKEGGKDGVFAEYFHVNDADMNLAHLPDEIKPEVAVMATDMMTTGFHGAELADIPLGGTVAVIGIGPVGLMAVAGARLLGAGRIIAVGSRPVCVEAAKYYGATDIVNRREHPDIAGRILELTGGEGVDSVIIAGGNVDVMKTAVKIVKPGGTVANINYFGSGDYLPIPRIEWGQGMAHKTIKGGLCPGGRLRMERLLDLIKYGRVDPSRLITHKFKGFDKIPEALYLMKDKPKDLIKPVVIIEE
modifications: Wild-type with vector coding region
Consider B1, for which the Specific activity in data set [3] is 1079 U/mg and 1073 U/mg; in data set [3] (listed as recombinant enzyme), 1073 U/mg. In addition, the “t1/2 (thermostability)” value in data set [4] is reported as “about 26 hours”. Further, the “Enzyme activity after heat treatment of cell extract (in words)” value in data set [4] (60° C. for half an hour) is on record as “no loss”. In data set [4] (42 hours at 80° C.), the “Residual activity after incubation” value is recorded as “more than 60%”. Moreover, the “t1/2 upon exposure to the air” value in [5] was “about 4 hours”. Further, the “Optimal pH, formation of alcohols (2-butanone reduction)” value in data set [6] turned out to be 7.5. For the same molecule, the “Optimal pH, oxidation of alcohols (2-butanol)” value in data set [6] is recorded as 10.5. Also, the “Highest activity in temperature dependence test” value in [7] (at 95° C.) is reported as 1533 U/mg.

B2: T. brockii: T brockii ADH available at Sigma Aldrich, essentially T ehtanolicus ADH (protein, UniProt P14941 1-352, looked up)
NADP-dependent isopropanol …: MKGFAMLSIGKVGWIEKEKPAPGPFDAIVRPLAVAPCTSDIHTVFEGAIGERHNMILGHEAVGEVVEVGSEVKDFKPGDRVVVPAITPDWRTSEVQRGYHQHSGGMLAGWKFSNVKDGVFGEFFHVNDADMNLAHLPKEIPLEAAVMIPDMMTTGFHGAELADIELGATVAVLGIGPVGLMAVAGAKLRGAGRIIAVGSRPVCVDAAKYYGATDIVNYKDGPIESQIMNLTEGKGVDAAIIAGGNADIMATAVKIVKPGGTIANVNYFGEGEVLPVPRLEWGCGMAHKTIKGGLCPGGRLRMERLIDLVFYKRVDPSKLVTHVFRGFDNIEKAFMLMKDKPKDLIKPVVILA
In the case of B2, in [8] (at 93.8° C.), the Thermostability is 60 min at. The Solvent tolerance in [8] (isopropanol) was 64%.

B3: TgADH: alcohol dehydrogenase purified from Thermococcus guaymasensis, SEQ ID NO:4, homotetramer, zinc-containing, NADP^+-dependent (protein, listed as Thermococcus guaymasensis)
chain: SKMRGFAMVDFGKAEWIEKERPKPGPYDAIVKPIAVAPCTSDIHTVFEAAFPREMCEFPRILGHEAVGEVVEVGSHVKDFKPGDRVVVPAITPDWRTLDVQRGYHQHSGGMLAGWKFSNPLKEGGKDGVFAEYFHVNDADMNLAHLPDEIKPEVAVMATDMMTTGFHGAELADIPLGGTVAVIGIGPVGLMAVAGARLLGAGRIIAVGSRPVCVEAAKYYGATDIVNRREHPDIAGRILELTGGEGVDSVIIAGGNVDVMKTAVKIVKPGGTVANINYFGSGDYLPIPRIEWGQGMAHKTIKGGLCPGGRLRMERLLDLIKYGRVDPSRLITHKFKGFDKIPEALYLMKDKPKDLIKPVVIIEE
modifications: homotetramer, zinc-containing
B3: in [9], the “Chiral compound synthesis preference” value is listed as “R-configured”. Also, the “Enzyme (specific) activity” value in data set [3] (2-butanol as assay substrate) turned out to be 1149 U mg^−1. Moreover, the Specific activity in [3] stood at 1049 U/mg. In data set [4], the Thermostability was determined as 24 hr at 95 °C and the “t1/2 (thermostability)” value came to 70 h. In addition, in data set [4] (80° C. for 40 hours), the Activity after incubation is reported as 60%. In [5] (exposed to air for a week), the “Activity after exposure to air (in words)” value is given as “lost activity”. For the same molecule, the “t1/2 upon exposure to the air” value in data set [5] is 6 h. The “t1/2 upon exposure to the air” value in data set [5] (listed as T. guaymasensis ADH) is “about 4 hours”. Also, in [10], the “Enzyme activity remaining, of full activity” value is “about 40%”; the “Methanol concentration at which half of full activity remained” value is on record as “about 24 % (v/v)”; the “Methanol concentration up to which the enzyme was active” value is “up to 40 % (v/v)”. The Solvent tolerance in data set [10] (methanol) came out at 24% methanol. The “Enzyme activity retained (in words)” value in data set [10] (methanol up to 5% (v/v)) is recorded as “almost its full activity”. In addition, in [6], the “Optimal pH, acetaldehyde reduction” value is listed as 7.5; the “Optimal pH, ethanol oxidation” value is listed as 10.5; the “Optimal pH, formation of alcohols (2-butanone reduction)” value is reported as 7.5; the “Optimal pH, oxidation of alcohols (2-butanol)” value stood at 10.5. Further, in data set [7] (tested 30 to 95° C.), the Optimal temperature entry is “over 95 °C”.
